± gives the uncertainty stated by the source.
Assay: protein stability index of a GFP-peptide fusion (yeast GPS) (PSI 1-4); higher = more stable; sorted into four equal gates, so the index is relative within each strain
In short: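 Plasmids in a pooled yeast library fused tiled 17-residue yeast protein peptides downstream of GFP and also expressed Cherry. Mid-log cultures grown without leucine were sorted into four equal gates by GFP/Cherry fluorescence ratio. Each gate's plasmids were PCR-amplified and Illumina-sequenced, and reads were matched to strains by barcodes. The protein stability index is derived by multiplying each gate's read frequency by its gate number and summing the results.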

Row | Sequence | protein stability index (doa10∆) | protein stability index (pdr5∆) | protein stability index (san1∆) | protein stability index (ubr1∆)
1 | SNESQNGKDSEIMYTGV [SMC3] | 3.46 ± 0.14 | 3.13 ± 0.27 | 3.03 ± 0.19 | 
2 | SNGLLSIVLLLLSQFGI [YML103C/NUP188] | 1.51 ± 0.12 | 1.53 ± 0.083 | 1.41 ± 0.18 | 2.19 ± 0.079
3 | SNIMSDSKKIKVDSPDD [GAL11] | 2.9 ± 0.078 | 2.73 ± 0.079 | 3.03 ± 0.072 | 2.88 ± 0.061
4 | SNISDEKSRISERDSKD [YMR129W/POM152] | 3.06 ± 0.1 | 3.12 ± 0.076 | 2.87 ± 0.075 | 3.13 ± 0.063
5 | SNKSNSTNESNKSISDE [SSN2] | 3.04 ± 0.077 | 3.05 ± 0.1 | 3.05 ± 0.069 | 3.09 ± 0.087
6 | SNNELVRTNTLTKAAIV [RPS8A] | 2.842 ± 0.022 | 3.046 ± 0.022 | 2.724 ± 0.022 | 3.021 ± 0.018
7 | SNQERCHDEGNDMLQRN [RRI1] | 3.33 ± 0.075 | 3.2 ± 0.11 | 3.35 ± 0.098 | 3.16 ± 0.076
8 | SNSMDRSSSASNEFVPN [SWI1] | 2.75 ± 0.055 | 2.71 ± 0.055 | 2.65 ± 0.046 | 2.69 ± 0.045
9 | SNSNNNGNKDSSFNFNK [SWI1] | 3.04 ± 0.053 | 3.17 ± 0.043 | 3.13 ± 0.04 | 3.16 ± 0.04
10 | SNTMYSVRLFSFLDPLN [YJL039C/NUP192] | 1.41 ± 0.048 | 1.48 ± 0.061 | 1.83 ± 0.063 | 1.69 ± 0.059
11 | SPAGKYKRQKSSLLYTY [ESC2] | 1.24 ± 0.056 | 1.39 ± 0.067 | 1.17 ± 0.11 | 1.16 ± 0.06
12 | SPDGRNFQVEYAVKAVE [PRE10] | 2.8 ± 0.079 | 2.81 ± 0.077 | 2.65 ± 0.07 | 2.37 ± 0.085
13 | SPDSTVNRSVVVSAVGE [YAR002W/NUP60] | 3.11 ± 0.084 | 2.91 ± 0.088 | 3.28 ± 0.063 | 2.79 ± 0.061
14 | SPEGRLFQVEYSLEAIK [PUP2] | 2.37 ± 0.19 | 2.86 ± 0.1 | 2.75 ± 0.12 | 2.62 ± 0.067
15 | SPFLMGHPMTKSVYETP [SEC65] | 2.28 ± 0.067 | 2.55 ± 0.068 | 2.83 ± 0.083 | 2.68 ± 0.052
16 | SPIGFTNSPQISVTRQV [SMC2] | 2.92 ± 0.052 | 3.09 ± 0.047 | 2.95 ± 0.043 | 2.79 ± 0.034
17 | SPIKNGSCTRQLAGKSG [YOR098C/NUP1] | 3.32 ± 0.084 | 3.02 ± 0.056 | 2.35 ± 0.07 | 3.08 ± 0.069
18 | SPKPYAVKYGLNHVVSL [RPL8B] | 1.96 ± 0.07 | 2.09 ± 0.069 | 2.09 ± 0.092 | 1.94 ± 0.046
19 | SPLLESDSIEKIVEIDR [PUP2] | 3.48 ± 0.11 | 3.08 ± 0.1 | 2.59 ± 0.15 | 3.49 ± 0.14
20 | SPMINSTSSGKVSYAVK [SNM1] | 2.6 ± 0.11 | 3.11 ± 0.065 | 2.32 ± 0.097 | 2.93 ± 0.056
21 | SPQAVSSFVRQELAKSI [PRE1] | 2.33 ± 0.11 | 2.33 ± 0.072 | 2.1 ± 0.19 | 2.31 ± 0.059
22 | SPTSPSYSPTSPSYSPT [RPO21] | 2.74 ± 0.037 | 2.91 ± 0.039 | 2.72 ± 0.036 | 2.82 ± 0.029
23 | SPYERRLIDLIRNSGEK [RPL36A] | 1.86 ± 0.093 | 1.89 ± 0.098 | 1.68 ± 0.16 | 1.89 ± 0.086
24 | SQIIPLMKKACYVGLLT [SNU114] | 1.67 ± 0.049 | 1.82 ± 0.06 | 1.75 ± 0.07 | 1.83 ± 0.043
25 | SQKHNGRILKWLWPLCR [CDC53] | 1.52 ± 0.063 | 1.33 ± 0.071 | 1.35 ± 0.094 | 1.12 ± 0.04
26 | SQLKKSKAQQKTAEQVA [RPL7A] | 2.7 ± 0.071 | 2.79 ± 0.087 | 2.58 ± 0.1 | 2.94 ± 0.052
27 | SQLKKTKAQQKTAEQIA [RPL7B] | 2.9 ± 0.085 | 2.92 ± 0.11 | 2.95 ± 0.067 | 2.86 ± 0.048

Row | Sequence | protein stability index (doa10∆) | protein stability index (pdr5∆) | protein stability index (san1∆) | protein stability index (ubr1∆)
28 | SQLQEQFNKILPEPTEG [FAS1] | 2.82 ± 0.1 | 3.17 ± 0.12 | 2.64 ± 0.076 | 2.71 ± 0.097
29 | SQRPGARILARSERKRT [ITC1] | 3.14 ± 0.18 | 2.79 ± 0.17 | 3.07 ± 0.21 | 2.98 ± 0.2
30 | SQSKGTVWSANFEYDLS [YOR098C/NUP1] |  | 3.35 ± 0.15 | 2.69 ± 0.28 | 3.38 ± 0.12
31 | SQSLTSILVIVQKILPL [SWI1] | 1.38 ± 0.041 | 1.39 ± 0.035 | 1.48 ± 0.066 | 1.61 ± 0.033
32 | SQSRSAKAGLTFPVGRV [HTA1] | 2.8 ± 0.071 | 2.85 ± 0.08 | 2.92 ± 0.042 | 3.07 ± 0.035
33 | SQTNNSFLSGVKSLLSE [SIR4] | 2.98 ± 0.069 | 3.26 ± 0.067 | 3.14 ± 0.046 | 3.1 ± 0.056
34 | SRDKTIKVWTIKGQCLA [ASC1] | 1.63 ± 0.078 | 2.04 ± 0.074 | 2.12 ± 0.11 | 1.83 ± 0.06
35 | SRFSPEKLAVSALEQAI [YGL100W/SEH1] | 2.19 ± 0.098 | 2.36 ± 0.12 | 1.9 ± 0.077 | 2.42 ± 0.13
36 | SRGNGGKKVLNKNQLLK [POP1] | 1.86 ± 0.14 | 2.54 ± 0.11 | 2.53 ± 0.14 | 3.43 ± 0.11
37 | SRKQKVIKTLTVDVSSP [RPL22B] | 2.52 ± 0.094 | 2.6 ± 0.08 | 2.36 ± 0.12 | 2.79 ± 0.058
38 | SRLLDILEDYCYFRDFE [ISW2] | 1.71 ± 0.088 | 1.42 ± 0.089 | 1.5 ± 0.12 | 1.21 ± 0.058
39 | SRPEYSCTFWSDKESNA [YJL039C/NUP192] | 2.08 ± 0.063 | 2.5 ± 0.061 | 2.51 ± 0.071 | 2.57 ± 0.072
40 | SRQKSGLFDSFTNGVLA [YML031W/NDC1] | 1.68 ± 0.064 | 1.5 ± 0.065 | 1.92 ± 0.12 | 1.49 ± 0.06
41 | SRQVQKRPRSRTLTAVH [RPS7A] | 2.54 ± 0.035 | 2.33 ± 0.034 | 2.41 ± 0.037 | 2.03 ± 0.032
42 | SRRFKNGFQTGSASKAS [RPL37A] | 2.76 ± 0.075 | 2.73 ± 0.087 | 3.26 ± 0.17 | 2.58 ± 0.055
43 | SRRLMKSLEDLSCQYDN [RPO31] | 2.04 ± 0.11 | 1.42 ± 0.17 | 1.36 ± 0.2 | 1.27 ± 0.085
44 | SRSSVCVKAIEALFQSR [YCG1] | 3.14 ± 0.064 | 2.92 ± 0.085 | 3.04 ± 0.077 | 2.97 ± 0.066
45 | SSATIVLCLTRSSYMLE [YCG1] | 1.76 ± 0.035 | 2.1 ± 0.038 | 1.91 ± 0.048 | 2.23 ± 0.032
46 | SSDDRVKVLAATNRVDV [RPT5] | 2.66 ± 0.18 | 2.95 ± 0.26 | 2.88 ± 0.15 | 
47 | SSFKEDCLSFAPTLSQT [SSN2] | 2.7 ± 0.084 | 2.67 ± 0.1 | 3.03 ± 0.086 | 2.91 ± 0.052
48 | SSFSLTFFPRCIIAVSC [POP1] | 1.93 ± 0.029 | 1.86 ± 0.035 | 2.07 ± 0.054 | 2.03 ± 0.037
49 | SSGDFDDNNNNNNNNNN [GRR1] | 3.11 ± 0.06 | 3.18 ± 0.057 | 3.22 ± 0.063 | 3.04 ± 0.046
50 | SSISWKNIAQCLSDYTK [YJL039C/NUP192] | 2.05 ± 0.08 | 2.11 ± 0.076 | 1.87 ± 0.076 | 2.11 ± 0.058
51 | SSKKSKRLDKVGKKKGG [LRP1] | 2 ± 0.08 | 1.17 ± 0.068 | 1.91 ± 0.12 | 1.43 ± 0.057
52 | SSKYAYMMNSQSPRGKI [YLR018C/POM34] | 2.83 ± 0.062 | 2.69 ± 0.065 | 2.75 ± 0.044 | 2.78 ± 0.038
53 | SSLFNNSTNSNTTKPAF [YJL041W/NSP1] | 2.45 ± 0.054 | 2.15 ± 0.049 | 2.61 ± 0.042 | 2.06 ± 0.037

— the supplement of paper PMC9732359
